Test results: patent US20110281938

Legend:
[1] = target: TFPI (source and species not stated; Examples 8, 12 and 45), P10646
[2] = target: Recombinant human TFPI purified from a cell line from Novo Nordisk

Sequence of TFPI (source and species not stated; Examples 8, 12 and 45), P10646 (P10646 whole entry, looked up): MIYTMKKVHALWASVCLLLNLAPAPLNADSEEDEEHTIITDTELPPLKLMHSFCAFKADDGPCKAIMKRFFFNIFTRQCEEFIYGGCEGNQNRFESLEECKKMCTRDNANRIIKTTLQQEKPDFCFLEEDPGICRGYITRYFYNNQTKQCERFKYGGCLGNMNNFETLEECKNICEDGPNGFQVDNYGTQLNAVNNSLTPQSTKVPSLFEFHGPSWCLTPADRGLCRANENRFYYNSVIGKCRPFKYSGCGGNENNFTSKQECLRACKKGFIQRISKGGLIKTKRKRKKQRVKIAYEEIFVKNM

B1: tissue factor:FVIIa complex (TF:FVIIa) (protein)
chain 1: SGTTNTVAAYNLTWKSTNFKTILEWEPKPVNQVYTVQISTKSGDWKSKCFYTTDTECDLTDEIVKDVKQTYLARVFSYPAGNVESTGSAGEPLYENSPEFTPYLETNLGQPTIQSFEQVGTKVNVTVEDERTLVRRNNTFLSLRDVFGKDLIYTLYYWKSSSSGKKTAKTNTNEFLIDVDKGENYCFSVQAVIPSRTVNRKSTDSPVECMGQEKGEFREIFYIIGAVVFVVIILVIILAISLHKCRKAGVGQSWKENSPLNVS
chain 2: ANAFLEELRPGSLERECKEEQCSFEEAREIFKDAERTKLFWISYSDGDQCASSPCQNGGSCKDQLQSYICFCLPAFEGRNCETHKDDQLICVNENGGCEQYCSDHTGTKRSCRCHEGYSLLADGVSCTPTVEYPCGKIPILEKRNASKPQGRIVGGKVCPKGECPWQVLLLVNGAQLCGGTLINTIWVVSAAHCFDKIKNWRNLIAVLGEHDLSEHDGDEQSRRVAQVIIPSTYVPGTTNHDIALLRLHQPVVLTDHVVPLCLPERTFSERTLAFVRFSLVSGWGQLLDRGATALELMVLNVPRLMTQDCLQQSRKVGDSPNITEYMFCAGYSDGSKDSCKGDSGGPHATHYRGTWYLTGIVSWGQGCATVGHFGVYTRVSQYIEWLQKLMRSEPRPGVLLRAPFP
[1]
  TF:FVIIa activity, hydrolysis of fluorogenic substrate SN-17c, 8 nM TFPI: TFPI inhibited approximately 50% of TF:FVIIa activity under these conditions

B2: extrinsic Xase: re-lipidated recombinant human tissue factor (Innovin) with factor VIIa (Enzyme Research Laboratories) (protein)
chain 1: B1 chain 1
chain 2: B1 chain 2
[2]
  FXa generation by the extrinsic Xase (chromogenic FXa substrate), 2 nM TFPI: curve #6 shows that TFPI shuts down Xa generation in the absence of ARC19499

B3: Factor Xa (FXa) (protein)
chain 1: ANSFLEEMKKGHLERECMEETCSYEEAREVFEDSDKTNEFWNKYKDGDQCETSPCQNQGKCKDGLGEYTCTCLEGFEGKNCELFTRKLCSLDNGDCDQFCHEEQNSVVCSCARGYTLADNGKACIPTGPYPCGKQTLER
chain 2: IVGGQECKDGECPWQALLINEENEGFCGGTILSEFYILTAAHCLYQAKRFKVRVGDRNTEQEEGGEAVHEVEVVIKHNRFTKETYDFDIAVLRLKTPITFRMNVAPACLPERDWAESTLMTQKTGIVSGFGRTHEKGRQSTRLKMLEVPYVDRNSCKLSSSFIITQNMFCAGYDTKQEDACQGDSGGPHVTRFKDTYFVTGIVSWGEGCARKGKYGIYTKVTAFLKWIDRSMKTRGLPKAKSHAPEVITSSPLK
[1]
  FXa cleavage of chromogenic substrate S-2765, substrate added last, 1 nM FXa: In the presence of ≧8 nM TFPI, inhibition is nearly complete under these conditions and little product is formed
